{"source": "patent US12390511B2", "about": "“Product and process for mucus viscosity normalization” (ORPRO THERAPEUTICS, INC., priority 2013, dated 2025)", "test": "Compaction assay to assess liquefaction of human CF sputum", "conditions": "0.58 mM in diluent, n=6 per treatment; FIG. 2", "description": "Compaction assay to assess liquefaction of human CF sputum. For all manipulations, CF sputum was handled under a microbiologic hood. rhTrx, r(Cys)hTrx or diluent alone (25 microliters), in relevant concentrations, was added to CF sputum (275 microliters) in a 1.5 ml Eppendorf conical tube and mixed by very brief vortexing. After incubation at 37 degrees C. for 30 min, samples were again briefly mixed and loaded into hematocrit tubes and sealed at both ends. After a 5 minute centrifugation in a hematocrit centrifuge, the percent solids (gel) and percent liquid was determined by direct linear measurement and expressed as percent liquid as follows: 100×liquid/(liquid+solids). For each condition, sputum from at least five different CF patients was measured in triplicate.\nComparison of efficacy with standard of care mucolytic agent (rhDNase). For these studies, relevant concentrations of rhTrx, r(Cys)hTrx and rhDNase were compared by incubation as described above. After 30 minutes, samples were assessed for changes in liquefaction of sputum (compaction assay) and alteration of viscoelasticity. In addition, synergy studies were performed. […] For each condition, sputum from at least five different CF patients were measured in triplicate. […]\nHuman CF sputum collection. Sputum was obtained from adult and pediatric patients with CF as determined by a health care provider. […]"}
{"molecule": "rhDNase: standard of care CF mucolytic Pulmozyme (rhDNase I; dornase alfa) (protein, UniProt P24855 23-282, looked up) Deoxyribonuclease-1: LKIAAFNIQTFGETKMSNATLVSYIVQILSRYDIALVQEVRDSHLTAVGKLLDNLNQDAPDTYHYVVSEPLGRNSYKERYLFVYRPDQVSAVDSYYYDDGCEPCGNDTFNREPAIVRFFSRFTEVREFAIVPLHAAPGDAVAEIDALYDVYLDVQEKWGLEDVMLMGDFNAGCSYVRPSQWSSIRLWTSPTFQWLIPDSADTTATPTHCAYDRIVVAGMLLRGAVVPDSALPFNFQAAYGLSDQLAQAISDHYPVEVMLK", "values": [{"measurement": "liquefaction of patient sputum / mucus-normalizing potency at equimolar concentrations", "result": "more potent than equimolar amounts of NAC"}]}
